The assay has as its target full length human galectin-3 (hGal3), Cys173 mutated to Thr (human, UniProt P17931 1-250, Cys173 mutated to Thr). Put plainly: SPR. For orientation: SPR reads the build-up and loss of mass on a sensor chip optically.

In general, Kd refers to the free concentration of one partner at which half of the binding sites on the other are occupied at equilibrium, for simple one-to-one binding. Low readings indicate tighter binding, high ones weaker binding.

full length human galectin-3 (hGal3), Cys173 mutated to Thr, sequence (P17931 other isoform, or with tags, fused parts or gaps Cys173 mutated to Thr): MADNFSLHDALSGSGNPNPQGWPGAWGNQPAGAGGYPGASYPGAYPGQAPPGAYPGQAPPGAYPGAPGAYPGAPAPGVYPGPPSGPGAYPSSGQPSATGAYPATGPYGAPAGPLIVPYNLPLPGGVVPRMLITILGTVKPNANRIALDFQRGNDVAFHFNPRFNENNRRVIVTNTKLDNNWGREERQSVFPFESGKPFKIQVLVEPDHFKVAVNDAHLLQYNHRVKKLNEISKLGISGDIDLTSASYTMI

B1: GaletuzuFab-PAS200-Cys (Fab, V domains shown)
VH: QIQLVQSGAEVKKPGESLKISCKVSGYTFTDYAIHWVRQMPGKGLKWMGWINTYTGKPIYADDFKGQVIISLDKSINTAYLQWSSLKASDTAIYYCARGTMMASLDYWGQGTTVTVSS
VL: DVVMTQSPSSLSASVGDRVTITCKSSQSLVHSDGKTYLSWIQQKPGKAPKGLIYLVSKLDSGVPSRFSGSGSETDFTLTISSLQPEDSATYYCWQATHFPLTFGPGTKVDIR
Molecule B1 came in with a Kd of 0.31 nM.

The values are drawn from publication PMC8016950 (2021).
